Source: patent US20210292396A1

How the values were obtained:
Assay in all cases: cell-based or functional assay
[1] = biological target: Env of HIV isolate 16055-2.3 (clade C) (HIV)
Envelope of SVA.MLV = biological target: Envelope of SVA.MLV
[2] = biological target: HIV Env of isolate 3337.v2.c6 (HIV)
[3] = biological target: Env of HIV isolate SF162.LS (clade B) (HIV)
[4] = biological target: Env of HIV isolate 25710-2.43 (clade C) (HIV)
[5] = biological target: HIV Env of isolate 6644.v2.c33 (HIV)
[6] = biological target: HIV Env of isolate 25925-2.22 (HIV)
[7] = biological target: Env of HIV isolate 3637.v5.c3 (clade C) (HIV)
[8] = biological target: HIV Env of isolate TZBD.02 (HIV)
[9] = biological target: Env of HIV isolate 3468.v1.c12 (clade AD) (HIV)
[10] = biological target: Env of HIV isolate BJOX002000.03.2 (clade BC) (HIV)
[11] = biological target: Env of HIV isolate 0439.v5.c1 (clade A) (HIV)
[12] = biological target: Env of HIV isolate 426c (clade C) (HIV)
[13] = biological target: Env of HIV isolate 235-47 (clade AG) (HIV)
[14] = biological target: HIV Env of isolate 26191-2.48 (HIV)
[15] = biological target: Env of HIV isolate CH119.10 (clade BC) (HIV)
[16] = biological target: Env of HIV isolate TRO.11 (clade B) (HIV)
[17] = biological target: Env of HIV isolate CAP244.D3 (clade C) (HIV)
[18] = biological target: HIV Env of isolate NKU3006.ec1 (HIV)
[19] = biological target: Env of HIV isolate T257-31 (clade AG) (HIV)
[20] = biological target: Env of HIV isolate TZBD.02 (clade C) (HIV)
[21] = biological target: Env of HIV isolate RHPA.7 (clade B) (HIV)
[22] = biological target: HIV Env of isolate DU156.12 (HIV)
[23] = biological target: Env of HIV isolate MB201.A1 (clade A) (HIV)
[24] = biological target: HIV Env of isolate ZM197.7 (HIV)
[25] = biological target: HIV Env of isolate CH117.4 (HIV)
[26] = biological target: HIV Env of isolate P0402.c2.11 (HIV)
[27] = biological target: Env of HIV isolate SC422.8 (clade B) (HIV)
[28] = biological target: HIV Env of isolate CNE7 (HIV)
[29] = biological target: HIV Env of isolate 3168.v4.c10 (HIV)
[30] = biological target: Env of HIV isolate 6644.v2.c33 (clade C) (HIV)
[31] = biological target: HIV Env of isolate 57128.vrc15 (HIV)
[32] = biological target: Env of HIV isolate X2278.C2.B6 (clade B) (HIV)
[33] = biological target: HIV Env of isolate DU172.17 (HIV)
[34] = biological target: Env of HIV isolate CH117.4 (clade BC) (HIV)
[35] = biological target: HIV Env of isolate 25710-2.43 (HIV)
[36] = biological target: Env of HIV isolate A03349M1.vrc4a (clade D) (HIV)
[37] = biological target: Env of HIV isolate BJOX010000.06.2 (clade AE) (HIV)
[38] = biological target: Env of HIV isolate 231965.c01 (clade D) (HIV)
[39] = biological target: Env of HIV isolate BX08.16 (clade B) (HIV)
[40] = biological target: Env of HIV isolate JRCSF.JB (clade B) (HIV)
[41] = biological target: Env of HIV isolate BB539.2B13 (clade A) (HIV)
[42] = biological target: Env of HIV isolate 6322.v4.c1 (clade C) (HIV)
[43] = biological target: HIV Env of isolate 6838.v1.c35 (HIV)
[44] = biological target: Env of HIV isolate KER2018.11 (clade A) (HIV)
[45] = biological target: Env of HIV isolate C3347.c11 (clade AE) (HIV)
[46] = biological target: Env of HIV isolate 45_01dG5 (clade B) (HIV)
[47] = biological target: Env of HIV isolate YU2.DG (clade B) (HIV)
[48] = biological target: Env of HIV isolate X1254.c3 (clade G) (HIV)
[49] = biological target: Env of HIV isolate CNE14 (clade B) (HIV)

B1: ePGT121.15 (ePGT121.15.H6 VH and ePGT121.15.L1 VL) (antibody, V domains shown)
VH: QMQLQESGPGLVKPGETLSLTCSVSGASISSSYWSWLRETPGKGLEWIGYTHHSGDTNYAPSLKSRVHLGLHPSKNQVSLSLTSVTAADTAVYYCARTLHGRRIYGVVAFNEFFTYFYWEVWGKGTQVTVSS
VL: SDISVAPGETVRISCGGESIGSRAVQWYQHRAGQAPKLIIYNNQDRPPGIPERFSGSPDIDFGTTATLTITNVEAGDEATYYCHIWDSRRPTNWVFGGGTTLTVL
[1]
  IC50, pseudovirus neutralization: 29 ng/mL
Envelope of SVA.MLV
  IC80, pseudovirus neutralization: > 50000 ng/mL
[2]
  IC80, pseudovirus neutralization: 2630 ng/mL
[3]
  IC50, pseudovirus neutralization: 3 ng/mL
[4]
  IC50, pseudovirus neutralization: 6 ng/mL
[5]
  IC80, pseudovirus neutralization: 8 ng/mL
[6]
  IC80, pseudovirus neutralization: 13 ng/mL
[7]
  IC50, pseudovirus neutralization: > 50000 ng/mL
[8]
  IC80, pseudovirus neutralization: 7 ng/mL
[9]
  IC50, pseudovirus neutralization: 2 ng/mL
[10]
  IC50, pseudovirus neutralization: 3 ng/mL
[11]
  IC50, pseudovirus neutralization: 4720 ng/mL
[12]
  IC50, pseudovirus neutralization: 385 ng/mL
[13]
  IC50, pseudovirus neutralization: 9 ng/mL
[14]
  IC80, pseudovirus neutralization: 15 ng/mL
[15]
  IC50, pseudovirus neutralization: 5 ng/mL
[16]
  IC50, pseudovirus neutralization: 3 ng/mL
[17]
  IC50, pseudovirus neutralization: > 50000 ng/mL
[18]
  IC80, pseudovirus neutralization: > 50000 ng/mL
[19]
  IC50, pseudovirus neutralization: > 50000 ng/mL
[20]
  IC50, pseudovirus neutralization: 3 ng/mL
[21]
  IC50, pseudovirus neutralization: 3 ng/mL
[22]
  IC80, pseudovirus neutralization: 5 ng/mL
[23]
  IC50, pseudovirus neutralization: 4 ng/mL
[24]
  IC80, pseudovirus neutralization: > 50000 ng/mL
[25]
  IC80, pseudovirus neutralization: > 50000 ng/mL
[26]
  IC80, pseudovirus neutralization: 7 ng/mL
[27]
  IC50, pseudovirus neutralization: 11 ng/mL
[28]
  IC80, pseudovirus neutralization: 13 ng/mL
[29]
  IC80, pseudovirus neutralization: 75 ng/mL
[30]
  IC50, pseudovirus neutralization: 3 ng/mL
[31]
  IC80, pseudovirus neutralization: 26 ng/mL
[32]
  IC50, pseudovirus neutralization: 2 ng/mL
[33]
  IC80, pseudovirus neutralization: 7 ng/mL
[34]
  IC50, pseudovirus neutralization: > 50000 ng/mL
[35]
  IC80, pseudovirus neutralization: 21 ng/mL
[36]
  IC50, pseudovirus neutralization: 6 ng/mL
[37]
  IC50, pseudovirus neutralization: > 50000 ng/mL
[38]
  IC50, pseudovirus neutralization: 12500 ng/mL
[39]
  IC50, pseudovirus neutralization: 4 ng/mL
[40]
  IC50, pseudovirus neutralization: 8 ng/mL
[41]
  IC50, pseudovirus neutralization: > 50000 ng/mL
[42]
  IC50, pseudovirus neutralization: > 50000 ng/mL
[43]
  IC80, pseudovirus neutralization: 1340 ng/mL
[44]
  IC50, pseudovirus neutralization: > 50000 ng/mL
[45]
  IC50, pseudovirus neutralization: > 50000 ng/mL
[46]
  IC50, pseudovirus neutralization: 3 ng/mL
[47]
  IC50, pseudovirus neutralization: 5 ng/mL
[48]
  IC50, pseudovirus neutralization: 4 ng/mL
[49]
  IC50, pseudovirus neutralization: 2 ng/mL
